Test results published in patent publication US20210102192A1 (TWIST BIOSCIENCE, published 2021).
Each block holds one binder with its values, some of them ahead of it.

Columns and labels:
[1] = target: T1, Prostaglandin D2 receptor 2 (CRTH2R) (human, UniProt Q9Y5Y4 1-395); assay: cell-based or functional assay
T1 sequence: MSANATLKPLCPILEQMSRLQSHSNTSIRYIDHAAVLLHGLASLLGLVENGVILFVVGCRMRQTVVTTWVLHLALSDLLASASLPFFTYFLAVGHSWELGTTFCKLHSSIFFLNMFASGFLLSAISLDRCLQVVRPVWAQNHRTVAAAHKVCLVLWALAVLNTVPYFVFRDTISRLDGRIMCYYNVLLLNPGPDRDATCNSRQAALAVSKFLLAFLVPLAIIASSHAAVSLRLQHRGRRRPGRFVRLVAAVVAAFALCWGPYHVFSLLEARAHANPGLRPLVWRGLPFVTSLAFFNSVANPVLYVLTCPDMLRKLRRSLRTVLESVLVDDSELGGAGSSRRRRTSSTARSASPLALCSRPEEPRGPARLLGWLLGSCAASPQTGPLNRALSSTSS

[2] = target: T2, Prostaglandin D2 receptor 2 (CRTH2R) (UniProt Q9Y5Y4 1-395); assay: FACS binding; CHO CRTH2R-positive cells
T2 chain: T1 sequence

[3] = target: T2, Prostaglandin D2 receptor 2 (CRTH2R); assay: FACS binding; CRTH2R-positive cells

IC50 fold difference of the PGD2 dose response curve (cAMP assay, 100 nM IgG) [1]: > 2 fold
EC50 [2]: 19.6 nM
B1: CRTH2-50 (antibody, V domains shown)
VH: QVQLVQSGAEVKKPGSSVKVSCKASGGTFSSYALSWVRKAPGQGLEWMGGTIPIFGTVNYAQKFQGRVTITADESTSTAYMELSSLRSEDTAVYYCARANQHFTRVIGQPSPAVPSRGYIYHGYHYYGMDVWGQGTLVTVSS
VL: QSALTQPASVSGSPGQSITISCTGTSSDIGGYNFVSWYQQHPGKAPKLMIYDVSNRPQGVSNRFSGSKSGNTASLTISGLQAEDEADYYCSSYTSSNTYVVFGGGTKLTVL

EC50 [3]: 0.181 nM
B2: CRTH2-41-51 (Fc fusion)
chain: EVQLVESGGGLVQPGGSLRLSCAASGGIFRFNAMGWFRQAPGKERELVAGISGSGGDTYYADSVKGRFTISADNSKNTAYLQMNSLKPEDTAVYYCAAFRGIMRPDWGQGTLVTVSS
